{
  "source": "the supplement of paper PMC10567573",
  "parents": {"B1": {"name": "GAGE1 (parent)", "chain": "RPRRYVQPPEMIGPMRPEQFSDEV"}, "B2": {"name": "WSB1 (parent)", "chain": "DLKDDGNMMKVLRGHQNWVYSCAF"}},
  "data": [
    {"variants_of": "B1", "assay": "protein stability index of a GFP-peptide fusion (GPS, HEK-293T) (PSI 1-6); higher = more stable", "details": "c terminus: a fixed tail appended", "values": [
      {"variant": "HPRRYVQPPEMIGPMRPEQFSDEV", "note": "[R1H]", "protein stability index": 3.94},
      {"variant": "WPRRYVQPPEMIGPMRPEQFSDEV", "note": "[R1W]", "protein stability index": 2.74},
      {"variant": "MPRRYVQPPEMIGPMRPEQFSDEV", "note": "[R1M]", "protein stability index": 3.98},
      {"variant": "EPRRYVQPPEMIGPMRPEQFSDEV", "note": "[R1E]", "protein stability index": 4.23},
      {"variant": "IPRRYVQPPEMIGPMRPEQFSDEV", "note": "[R1I]", "protein stability index": 3.7},
      {"variant": "NPRRYVQPPEMIGPMRPEQFSDEV", "note": "[R1N]", "protein stability index": 3.93},
      {"variant": "VPRRYVQPPEMIGPMRPEQFSDEV", "note": "[R1V]", "protein stability index": 3.59},
      {"variant": "DPRRYVQPPEMIGPMRPEQFSDEV", "note": "[R1D]", "protein stability index": 4.33},
      {"variant": "APRRYVQPPEMIGPMRPEQFSDEV", "note": "[R1A]", "protein stability index": 3.63},
      {"variant": "LPRRYVQPPEMIGPMRPEQFSDEV", "note": "[R1L]", "protein stability index": 3.96},
      {"variant": "KPRRYVQPPEMIGPMRPEQFSDEV", "note": "[R1K]", "protein stability index": 3.96},
      {"variant": "GPRRYVQPPEMIGPMRPEQFSDEV", "note": "[R1G]", "protein stability index": 3.85},
      {"variant": "PPRRYVQPPEMIGPMRPEQFSDEV", "note": "[R1P]", "protein stability index": 3.8},
      {"variant": "SPRRYVQPPEMIGPMRPEQFSDEV", "note": "[R1S]", "protein stability index": 3.73},
      {"variant": "QPRRYVQPPEMIGPMRPEQFSDEV", "note": "[R1Q]", "protein stability index": 4.23},
      {"variant": "TPRRYVQPPEMIGPMRPEQFSDEV", "note": "[R1T]", "protein stability index": 4.01},
      {"variant": "YPRRYVQPPEMIGPMRPEQFSDEV", "note": "[R1Y]", "protein stability index": 3.29},
      {"variant": "CPRRYVQPPEMIGPMRPEQFSDEV", "note": "[R1C]", "protein stability index": 4.07},
      {"variant": "FPRRYVQPPEMIGPMRPEQFSDEV", "note": "[R1F]", "protein stability index": 3.24},
      {"variant": "RFRRYVQPPEMIGPMRPEQFSDEV", "note": "[P2F]", "protein stability index": 2.81},
      {"variant": "RIRRYVQPPEMIGPMRPEQFSDEV", "note": "[P2I]", "protein stability index": 2.5},
      {"variant": "RSRRYVQPPEMIGPMRPEQFSDEV", "note": "[P2S]", "protein stability index": 3.92},
      {"variant": "RRRRYVQPPEMIGPMRPEQFSDEV", "note": "[P2R]", "protein stability index": 4.1},
      {"variant": "RERRYVQPPEMIGPMRPEQFSDEV", "note": "[P2E]", "protein stability index": 4.12},
      {"variant": "RVRRYVQPPEMIGPMRPEQFSDEV", "note": "[P2V]", "protein stability index": 3.5},
      {"variant": "RNRRYVQPPEMIGPMRPEQFSDEV", "note": "[P2N]", "protein stability index": 3.51},
      {"variant": "RQRRYVQPPEMIGPMRPEQFSDEV", "note": "[P2Q]", "protein stability index": 3.45},
      {"variant": "RLRRYVQPPEMIGPMRPEQFSDEV", "note": "[P2L]", "protein stability index": 2.99},
      {"variant": "RARRYVQPPEMIGPMRPEQFSDEV", "note": "[P2A]", "protein stability index": 3.59},
      {"variant": "RCRRYVQPPEMIGPMRPEQFSDEV", "note": "[P2C]", "protein stability index": 2.99},
      {"variant": "RWRRYVQPPEMIGPMRPEQFSDEV", "note": "[P2W]", "protein stability index": 2.14},
      {"variant": "RMRRYVQPPEMIGPMRPEQFSDEV", "note": "[P2M]", "protein stability index": 3.24},
      {"variant": "RYRRYVQPPEMIGPMRPEQFSDEV", "note": "[P2Y]", "protein stability index": 2.21},
      {"variant": "RHRRYVQPPEMIGPMRPEQFSDEV", "note": "[P2H]", "protein stability index": 3.61},
      {"variant": "RTRRYVQPPEMIGPMRPEQFSDEV", "note": "[P2T]", "protein stability index": 3.33},
      {"variant": "RKRRYVQPPEMIGPMRPEQFSDEV", "note": "[P2K]", "protein stability index": 3.24},
      {"variant": "RGRRYVQPPEMIGPMRPEQFSDEV", "note": "[P2G]", "protein stability index": 3.59},
      {"variant": "RDRRYVQPPEMIGPMRPEQFSDEV", "note": "[P2D]", "protein stability index": 3.98},
      {"variant": "RPFRYVQPPEMIGPMRPEQFSDEV", "note": "[R3F]", "protein stability index": 2.21},
      {"variant": "RPHRYVQPPEMIGPMRPEQFSDEV", "note": "[R3H]", "protein stability index": 3.83},
      {"variant": "RPKRYVQPPEMIGPMRPEQFSDEV", "note": "[R3K]", "protein stability index": 4.02},
      {"variant": "RPARYVQPPEMIGPMRPEQFSDEV", "note": "[R3A]", "protein stability index": 3.74},
      {"variant": "RPERYVQPPEMIGPMRPEQFSDEV", "note": "[R3E]", "protein stability index": 4.51},
      {"variant": "RPIRYVQPPEMIGPMRPEQFSDEV", "note": "[R3I]", "protein stability index": 4.23},
      {"variant": "RPGRYVQPPEMIGPMRPEQFSDEV", "note": "[R3G]", "protein stability index": 3.96},
      {"variant": "RPDRYVQPPEMIGPMRPEQFSDEV", "note": "[R3D]", "protein stability index": 4.28},
      {"variant": "RPCRYVQPPEMIGPMRPEQFSDEV", "note": "[R3C]", "protein stability index": 3.1}
    ]},
    {"variants_of": "B2", "assay": "protein stability index of a GFP-peptide fusion (GPS, HEK-293T) (PSI 1-6); higher = more stable", "details": "c terminus: a fixed tail appended", "values": [
      {"variant": "DLKDDGNMMKVLRGHQNWVYSPAF", "note": "[C22P]", "protein stability index": 2.01},
      {"variant": "DLKDDGNMMKVLRGHQNWVYSIAF", "note": "[C22I]", "protein stability index": 2.86},
      {"variant": "DLKDDGNMMKVLRGHQNWVYSEAF", "note": "[C22E]", "protein stability index": 2.39},
      {"variant": "DLKDDGNMMKVLRGHQNWVYSQAF", "note": "[C22Q]", "protein stability index": 2.15},
      {"variant": "DLKDDGNMMKVLRGHQNWVYSSAF", "note": "[C22S]", "protein stability index": 1.61},
      {"variant": "DLKDDGNMMKVLRGHQNWVYSKAF", "note": "[C22K]", "protein stability index": 1.77},
      {"variant": "DLKDDGNMMKVLRGHQNWVYSTAF", "note": "[C22T]", "protein stability index": 1.9},
      {"variant": "DLKDDGNMMKVLRGHQNWVYSMAF", "note": "[C22M]", "protein stability index": 2.61},
      {"variant": "DLKDDGNMMKVLRGHQNWVYSAAF", "note": "[C22A]", "protein stability index": 2.25},
      {"variant": "DLKDDGNMMKVLRGHQNWVYSYAF", "note": "[C22Y]", "protein stability index": 1.72},
      {"variant": "DLKDDGNMMKVLRGHQNWVYSNAF", "note": "[C22N]", "protein stability index": 1.81},
      {"variant": "DLKDDGNMMKVLRGHQNWVYSLAF", "note": "[C22L]", "protein stability index": 3.06},
      {"variant": "DLKDDGNMMKVLRGHQNWVYSHAF", "note": "[C22H]", "protein stability index": 1.33},
      {"variant": "DLKDDGNMMKVLRGHQNWVYSGAF", "note": "[C22G]", "protein stability index": 1.69},
      {"variant": "DLKDDGNMMKVLRGHQNWVYSRAF", "note": "[C22R]", "protein stability index": 2.33},
      {"variant": "DLKDDGNMMKVLRGHQNWVYSFAF", "note": "[C22F]", "protein stability index": 2.98},
      {"variant": "DLKDDGNMMKVLRGHQNWVYSDAF", "note": "[C22D]", "protein stability index": 3.46},
      {"variant": "DLKDDGNMMKVLRGHQNGVYSCAF", "note": "[W18G]", "protein stability index": 2.21},
      {"variant": "DLKDDGNMMKVLRGHQNDVYSCAF", "note": "[W18D]", "protein stability index": 1.69},
      {"variant": "DLKDDGNMMKVLRGHQNEVYSCAF", "note": "[W18E]", "protein stability index": 2.62},
      {"variant": "DLKDDGNMMKVLRGHQNLVYSCAF", "note": "[W18L]", "protein stability index": 2.88},
      {"variant": "DLKDDGNMMKVLRGHQNYVYSCAF", "note": "[W18Y]", "protein stability index": 2.09},
      {"variant": "DLKDDGNMMKVLRGHQNSVYSCAF", "note": "[W18S]", "protein stability index": 2.7},
      {"variant": "DLKDDGNMMKVLRGHQNVVYSCAF", "note": "[W18V]", "protein stability index": 1.07},
      {"variant": "DLKDDGNMMKVLRGHQNQVYSCAF", "note": "[W18Q]", "protein stability index": 2.73},
      {"variant": "DLKDDGNMMKVLRGHQNHVYSCAF", "note": "[W18H]", "protein stability index": 2.34},
      {"variant": "DLKDDGNMMKVLRGHQNMVYSCAF", "note": "[W18M]", "protein stability index": 2.75},
      {"variant": "DLKDDGNMMKVLRGHQNAVYSCAF", "note": "[W18A]", "protein stability index": 2.49},
      {"variant": "DLKDDGNMMKVLRGHQNKVYSCAF", "note": "[W18K]", "protein stability index": 1.46},
      {"variant": "DLKDDGNMMKVLRGHQNRVYSCAF", "note": "[W18R]", "protein stability index": 1.65},
      {"variant": "DLKDDGNMMKVLRGHQNPVYSCAF", "note": "[W18P]", "protein stability index": 1.86},
      {"variant": "DLKDDGNMMKVLRGHQNNVYSCAF", "note": "[W18N]", "protein stability index": 2.24},
      {"variant": "DLKDDGNMMKVLRGHQNTVYSCAF", "note": "[W18T]", "protein stability index": 2.08},
      {"variant": "DLKDDGNMMKVLRGHQNFVYSCAF", "note": "[W18F]", "protein stability index": 1.47},
      {"variant": "DLKDDGNMMKVLRGHQNIVYSCAF", "note": "[W18I]", "protein stability index": 2.35},
      {"variant": "DLKDDGNMMKVLRGHQNCVYSCAF", "note": "[W18C]", "protein stability index": 2.38},
      {"variant": "DLKDDGNMMKVLRGHLNWVYSCAF", "note": "[Q16L]", "protein stability index": 1.48},
      {"variant": "DLKDDGNMMKVLRGHINWVYSCAF", "note": "[Q16I]", "protein stability index": 2.04},
      {"variant": "DLKDDGNMMKVLRGHVNWVYSCAF", "note": "[Q16V]", "protein stability index": 1.52},
      {"variant": "DLKDDGNMMKVLRGHHNWVYSCAF", "note": "[Q16H]", "protein stability index": 2.75},
      {"variant": "DLKDDGNMMKVLRGHTNWVYSCAF", "note": "[Q16T]", "protein stability index": 2.79},
      {"variant": "DLKDDGNMMKVLRGHNNWVYSCAF", "note": "[Q16N]", "protein stability index": 1.79},
      {"variant": "DLKDDGNMMKVLRGHENWVYSCAF", "note": "[Q16E]", "protein stability index": 2.36},
      {"variant": "DLKDDGNMMKVLRGHSNWVYSCAF", "note": "[Q16S]", "protein stability index": 2.54},
      {"variant": "DLKDDGNMMKVLRGHPNWVYSCAF", "note": "[Q16P]", "protein stability index": 2.52},
      {"variant": "DLKDDGNMMKVLRGHYNWVYSCAF", "note": "[Q16Y]", "protein stability index": 1.4},
      {"variant": "DLKDDGNMMKVLRGHMNWVYSCAF", "note": "[Q16M]", "protein stability index": 2.04}
    ]}
  ]
}
